The text below walks through data of PMC9108626, “Mammalian UPF3A and UPF3B can activate nonsense‐mediated mRNA decay independently of their exon junction complex binding” (The EMBO Journal, 2022).

Settings in all cases: partners not purified
For assay [1], the target named is T1, EIF4A3 (endogenous, HeLa Tet‐off) (human (endogenous in HeLa), UniProt P38919 1-411).
T1 construct: EIF4A3, human, endogenous in HeLa Tet-off cells; also called EJC; source: endogenous, lysate of HeLa Tet-off and 3B^KO#3 HeLa Tet-off cells
T1 sequence (P38919 whole entry): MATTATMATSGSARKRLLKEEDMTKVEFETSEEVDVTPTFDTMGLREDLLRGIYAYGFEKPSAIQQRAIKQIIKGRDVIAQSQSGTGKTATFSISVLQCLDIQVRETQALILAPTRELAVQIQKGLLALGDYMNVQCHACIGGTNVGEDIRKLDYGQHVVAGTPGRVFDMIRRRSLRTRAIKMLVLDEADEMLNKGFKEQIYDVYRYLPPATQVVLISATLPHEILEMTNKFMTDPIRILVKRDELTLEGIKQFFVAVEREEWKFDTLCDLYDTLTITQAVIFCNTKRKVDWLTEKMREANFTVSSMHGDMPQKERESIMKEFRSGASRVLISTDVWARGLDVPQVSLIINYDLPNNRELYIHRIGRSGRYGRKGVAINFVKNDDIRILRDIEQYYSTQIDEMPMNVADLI
Kind of assay: co-IP; EIF4A3-IP (IgG-IP as control) from HeLa Tet-off cells and 3B^KO#3 HeLa Tet-off cells, with overexpression of CASC3 wild type or the HDAA mutant; immunoblot.

Assay [2] deals with T2, EIF4A3 (endogenous, HCT116) (human (endogenous in HCT116), UniProt P38919 1-411).
T2 construct: EIF4A3, human, core factor of the exon junction complex, endogenous in HCT116 cells; also called core EJC factor EIF4A3; source: endogenous, HCT116 lysate
T2 sequence (P38919 whole entry): as above
The assay is described as follows: co-IP; EIF4A3-IP from 3^DKO#2 HCT116 cells stably expressing FLAG-tagged UPF3 proteins, UPF3A chimeras or EGFP; FLAG-tagged proteins quantified against EIF4A3; immunoblot. For orientation: Immunoblotting shows a protein as a band on a membrane.

For assay [3], the target named is T2, EIF4A3 (endogenous, HCT116). The assay is described as follows: co-IP; EIF4A3-IP (antibody on protein-A Dynabeads; normal rabbit IgG as control) from WT and UPF3B mutant (3B^Δ2BD, 3B^KO) HCT116 lysates; 4°C, washes with 150 mM NaCl; immunoblot.

B1: UPF3B (endogenous, HeLa Tet‐off) (natural protein, human (endogenous in HeLa), UniProt Q9BZI7 1-483, looked up)
chain: MKEEKEHRPKEKRVTLLTPAGATGSGGGTSGDSSKGEDKQDRNKEKKEALSKVVIRRLPPTLTKEQLQEHLQPMPEHDYFEFFSNDTSLYPHMYARAYINFKNQEDIILFRDRFDGYVFLDNKGQEYPAIVEFAPFQKAAKKKTKKRDTKVGTIDDDPEYRKFLESYATDNEKMTSTPETLLEEIEAKNRELIAKKTTPLLSFLKNKQRMREEKREERRRREIERKRQREEERRKWKEEEKRKRKDIEKLKKIDRIPERDKLKDEPKIKVHRFLLQAVNQKNLLKKPEKGDEKELDKREKAKKLDKENLSDERASGQSCTLPKRSDSELKDEKPKRPEDESGRDYREREREYERDQERILRERERLKRQEEERRRQKERYEKEKTFKRKEEEMKKEKDTLRDKGKKAESTESIGSSEKTEKKEEVVKRDRIRNKDRPAMQLYQPGARSRNRLCPPDDSTKSGDSAAERKQESGISHRKEGGEE
notes: UPF3B, human, endogenous in HeLa Tet-off cells; source: endogenous, HeLa Tet-off lysate
Consider B1, for which, in assay [1], the “fold increase of co-IP upon overexpression of wild-type CASC3” value was 2.6 fold.

B2: FLAG‐tagged human UPF3A (stably expressed in 3^DKO#2 cells) (natural protein, UniProt Q9H1J1 1-476, looked up)
chain: MRSEKEGAGGLRAAVAARGPSGREKLSALEVQFHRDSQQQEAETPPTSSSGCGGGAGKPREEKRTALSKVVIRRLPPGLTKEQLEEQLRPLPAHDYFEFFAADLSLYPHLYSRAYINFRNPDDILLFRDRFDGYIFLDSKGLEYPAVVEFAPFQKIAKKKLRKKDAKTGSIEDDPEYKKFLETYCVEEEKTSANPETLLGEMEAKTRELIARRTTPLLEYIKNRKLEKQRIREEKREERRRRELEKKRLREEEKRRRREEERCKKKETDKQKKIAEKEVRIKLLKKPEKGEEPTTEKPKERGEEIDTGGGKQESCAPGAVVKARPMEGSLEEPQETSHSGSDKEHRDVERSQEQESEAQRYHVDDGRRHRAHHEPERLSRRSEDEQRWGKGPGQDRGKKGSQDSGAPGEAMERLGRAQRCDDSPAPRKERLANKDRPALQLYDPGARFRARECGGNRRICKAEGSGTGPEKREEAE
notes: UPF3A, human, CCDS9543.1; wild type; domains are defined over residues 2-476; cloned in pcDNA3ez-FLAG and moved to a Tet-ON PiggyBac plasmid; also called hUPF3A; FLAG‐UPF3A
Regarding B2, the “fold weaker co-IP against UPF3B” value in assay [2] was around 3 fold.

B3: UPF3A (endogenous, UPF3B knockout HeLa Tet‐off) (natural protein, human (endogenous in HeLa), UniProt Q9H1J1 1-476, looked up)
chain: MRSEKEGAGGLRAAVAARGPSGREKLSALEVQFHRDSQQQEAETPPTSSSGCGGGAGKPREEKRTALSKVVIRRLPPGLTKEQLEEQLRPLPAHDYFEFFAADLSLYPHLYSRAYINFRNPDDILLFRDRFDGYIFLDSKGLEYPAVVEFAPFQKIAKKKLRKKDAKTGSIEDDPEYKKFLETYCVEEEKTSANPETLLGEMEAKTRELIARRTTPLLEYIKNRKLEKQRIREEKREERRRRELEKKRLREEEKRRRREEERCKKKETDKQKKIAEKEVRIKLLKKPEKGEEPTTEKPKERGEEIDTGGGKQESCAPGAVVKARPMEGSLEEPQETSHSGSDKEHRDVERSQEQESEAQRYHVDDGRRHRAHHEPERLSRRSEDEQRWGKGPGQDRGKKGSQDSGAPGEAMERLGRAQRCDDSPAPRKERLANKDRPALQLYDPGARFRARECGGNRRICKAEGSGTGPEKREEAE
notes: UPF3A, human, endogenous in HeLa Tet-off cells; source: endogenous, 3B^KO#3 HeLa Tet-off lysate
Consider B3, for which the “fold increase of co-IP upon overexpression of wild-type CASC3” value in assay [1] came out at 3 fold.

B4: UPF3A (endogenous, HCT116) (natural protein, human (endogenous in HCT116), UniProt Q9H1J1 1-476, looked up)
chain: MRSEKEGAGGLRAAVAARGPSGREKLSALEVQFHRDSQQQEAETPPTSSSGCGGGAGKPREEKRTALSKVVIRRLPPGLTKEQLEEQLRPLPAHDYFEFFAADLSLYPHLYSRAYINFRNPDDILLFRDRFDGYIFLDSKGLEYPAVVEFAPFQKIAKKKLRKKDAKTGSIEDDPEYKKFLETYCVEEEKTSANPETLLGEMEAKTRELIARRTTPLLEYIKNRKLEKQRIREEKREERRRRELEKKRLREEEKRRRREEERCKKKETDKQKKIAEKEVRIKLLKKPEKGEEPTTEKPKERGEEIDTGGGKQESCAPGAVVKARPMEGSLEEPQETSHSGSDKEHRDVERSQEQESEAQRYHVDDGRRHRAHHEPERLSRRSEDEQRWGKGPGQDRGKKGSQDSGAPGEAMERLGRAQRCDDSPAPRKERLANKDRPALQLYDPGARFRARECGGNRRICKAEGSGTGPEKREEAE
notes: UPF3A, human, endogenous in HCT116 cells; source: endogenous, HCT116 lysate (WT, 3B^Δ2BD, 3B^KO cells)
Consider B4, for which the “fold increase of co-IP in UPF3B mutant cells over WT cells” value in assay [3] is around 2 fold.
